Patent publication US20210371526A1 (AMPSOURCE BIOPHARMA SHANGHAI, published 2021)

Experiments:
CD20 on Raji cells [1] = molecular target: T1, CD20 on Raji cells (human, UniProt P11836 1-297); test: cell-based or functional assay
T1 sequence (looked up): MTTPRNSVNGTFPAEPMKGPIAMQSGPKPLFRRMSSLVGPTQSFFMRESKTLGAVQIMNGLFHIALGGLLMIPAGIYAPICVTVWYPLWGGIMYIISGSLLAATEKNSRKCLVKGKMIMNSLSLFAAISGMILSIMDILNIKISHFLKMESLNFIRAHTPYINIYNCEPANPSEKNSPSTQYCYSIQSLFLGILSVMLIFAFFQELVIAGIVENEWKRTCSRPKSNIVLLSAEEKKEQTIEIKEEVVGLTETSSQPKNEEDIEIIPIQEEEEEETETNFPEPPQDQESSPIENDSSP

CD20 on Raji cells [2] = molecular target: T1, CD20 on Raji cells; test: flow cytometry on CD20-positive Raji cells
[3] = molecular target: T2, CD19 on tumor cells (Raji, Raji-Luc, NALM6, Reh) (human, UniProt P15391 20-556); test: cell-based or functional assay
T2 sequence (looked up): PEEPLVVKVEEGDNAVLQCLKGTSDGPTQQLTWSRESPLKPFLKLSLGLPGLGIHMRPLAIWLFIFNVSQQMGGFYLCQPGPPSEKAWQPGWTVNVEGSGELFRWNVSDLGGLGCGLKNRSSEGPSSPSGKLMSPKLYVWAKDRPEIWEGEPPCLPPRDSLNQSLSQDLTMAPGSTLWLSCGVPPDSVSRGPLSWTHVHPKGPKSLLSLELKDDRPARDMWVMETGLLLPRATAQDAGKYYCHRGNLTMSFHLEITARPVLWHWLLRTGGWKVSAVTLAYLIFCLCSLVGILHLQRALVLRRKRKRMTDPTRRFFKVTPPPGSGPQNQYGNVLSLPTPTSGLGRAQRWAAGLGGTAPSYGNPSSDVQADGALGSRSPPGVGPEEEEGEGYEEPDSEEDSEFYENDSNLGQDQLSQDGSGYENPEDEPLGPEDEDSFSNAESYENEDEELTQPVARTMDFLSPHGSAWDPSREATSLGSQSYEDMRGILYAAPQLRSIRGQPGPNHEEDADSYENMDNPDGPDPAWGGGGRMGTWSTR

[4] = molecular target: T3, CD3 on cynomolgus monkey T cells (CIK cells, primary T cells) (cynomolgus monkey, UniProt Q95LI5 22-198); test: flow cytometry on cynomolgus monkey CIK/T cells
T3 construct: whole, on cells; also called cynomolgus monkey CIK cell membrane CD3
T3 sequence (Q95LI5 22-198): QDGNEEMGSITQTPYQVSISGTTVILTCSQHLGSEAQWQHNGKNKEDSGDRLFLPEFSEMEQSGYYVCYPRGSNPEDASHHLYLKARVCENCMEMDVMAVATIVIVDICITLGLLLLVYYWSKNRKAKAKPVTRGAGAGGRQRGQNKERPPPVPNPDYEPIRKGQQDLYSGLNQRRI

[5] = molecular target: T2, CD19 on tumor cells (Raji, Raji-Luc, …); test: FACS on CD19-positive Raji cells, AF647 goat anti-human IgG [left panel]
[6] = molecular target: T2, CD19 on tumor cells (Raji, Raji-Luc, …); test: cell-based or functional assay; remark: listed apart in the source
[7] = molecular target: T2, CD19 on tumor cells (Raji, Raji-Luc, …); test: cell-based or functional assay; remark: listed apart in the source
[8] = molecular target: T2, CD19 on tumor cells (Raji, Raji-Luc, …); test: cell-based or functional assay; remark: listed apart in the source
[9] = molecular target: T2, CD19 on tumor cells (Raji, Raji-Luc, …); test: flow cytometry on CD19-positive Raji cells
[10] = molecular target: T3, CD3 on cynomolgus monkey T cells (CIK …); test: flow cytometry on cynomolgus monkey primary T cells

B1: Bispecific antibody AB2K (Anti-CD20×CD3, scFv1-scFv2-Fc) (bispecific antibody)
chain: QVQLQQPGAELVKPGASVKMSCKASGYTFTSYNMHWVKQTPGRGLEWIGAIYPGNGDTSYNQKFKGKATLTADKSSSTAYMQLSSLTSEDSAVYYCARSTYYGGDWYFNVWGAGTTVTVSAGGGGSGGGGSGGGGSQIVLSQSPAILSASPGEKVTMTCRASSSVSYIHWFQQKPGSSPKPWIYATSNLASGVPVRFSGSGSGTSYSLTISRVEAEDAATYYCQQWTSNPPTFGGGTKLEIKGGGGGGSGGGGSGGGGSSSSSKAPPPSEVQLLESGGGLVQPGGSLKLSCAASGFTFNTYAMNWVRQAPGKGLEWVARIRSKYNNYATYYADSVKDRFTISRDDSKNTAYLQMNNLKTEDTAVYYCVRHGNFGNSYVSWFAYWGQGTLVTVSSGGGGSGGGGSGGGGSELVVTQEPSLTVSPGGTVTLTCRSSTGAVTTSNYANWVQQKPGQAPRGLIGGTNKRAPGTPARFSGSLLGGKAALTLSGVQPEDEAEYYCALWYSNLWVFGGGTKLTVLDKTHTCPPCPAPEAAGGPSVFLFPPKPKDQLMISRTPEVTCVVVDVSHEDPEVKFNWYVDGVEVHNAKTKPREEQYASTYRVVSVLTVLHQDWLNGKEYKCKVSNKALPASIEKTISKAKGQPREPQVYTLPPSRDELTKNQVSLTCLVKGFYPSDIAVEWESNGQPENNYKTTPPVLDSDGSFFLYSKLTVDKSRWQQGNVFSCSVLHEALHNHYTQKSLSLSPG
In the case of B1, the “EC50 of CIK-mediated killing of Raji-luc cells (luciferase)” value (CD20 on Raji cells [1]) is reported as 0.0428 µg/mL, the “EC50 of activation of Jurkat NFATRE Luc reporter cells in the presence of CD20-positive Raji cells” value (CD20 on Raji cells [1]) is reported as 0.201 µg/mL and the EC50 (CD20 on Raji cells [2]) is reported as ~70 nM.

B2: Bispecific antibody AB1K2 (Anti-CD19×CD3, scFv1-scFv2-Fc) (bispecific antibody)
chain: QVQLQESGPGLVKPSQTLSLTCTVSGGSISTSGMGVGWIRQHPGKGLEWIGHIWWDDDKRYNPALKSRVTISVDTSKNQFSLKLSSVTAADTAVYYCARMELWSYYFDYWGQGTLVTVSSGGGGSGGGGSGGGGSEIVLTQSPATLSLSPGERATLSCSASSSVSYMHWYQQKPGQAPRLLIYDTSKLASGIPARFSGSGSGTDFTLTISSLEPEDVAVYYCFQGSVYPFTFGQGTKLEIKGGGGGGSGGGGSGGGGSSSSSKAPPPSEVQLLESGGGLVQPGGSLKLSCAASGFTFNTYAMNWVRQAPGKGLEWVARIRSKYNNYATYYADSVKDRFTISRDDSKNTAYLQMNNLKTEDTAVYYCVRHGNFGNSYVSWFAYWGQGTLVTVSSGGGGSGGGGSGGGGSELVVTQEPSLTVSPGGTVTLTCRSSTGAVTTSNYANWVQQKPGQAPRGLIGGTNKRAPGTPARFSGSLLGGKAALTLSGVQPEDEAEYYCALWYSNLWVFGGGTKLTVLDKTHTCPPCPAPEAAGGPSVFLFPPKPKDQLMISRTPEVTCVVVDVSHEDPEVKFNWYVDGVEVHNAKTKPREEQYASTYRVVSVLTVLHQDWLNGKEYKCKVSNKALPASIEKTISKAKGQPREPQVYTLPPSRDELTKNQVSLTCLVKGFYPSDIAVEWESNGQPENNYKTTPPVLDSDGSFFLYSKLTVDKSRWQQGNVFSCSVLHEALHNHYTQKSLSLSPG
B2 was tested, and the “EC50 of activation of Jurkat T cells with NFAT RE reporter in the presence of Raji target cells” value [3] was 1.08 nM, the EC50 [4] was ~5.5 nM and the “EC50 (read off the curve)” value [5] was ~1 nM. The “EC50 of CIK-mediated killing of Raji-LUC cells” value [6] was 0.000699 nM, the “EC50 of CIK-mediated killing of Raji-LUC cells, second row” value [6] was 0.000202 nM and the “EC50 of PBMC-mediated killing of Raji-LUC cells” value [7] was 0.00123 nM. For the same binder, the “EC50 of PBMC-mediated killing of Raji-LUC cells, second row” value [7] was 0.00125 nM, the “EC50 of CIK-mediated killing of Reh cells” value [8] was 0.00171 nM and the EC50 [9] was 1.39 nM.

B3: Bispecific antibody AB11K (Anti-Mucin1×CD3, scFv1-scFv2-Fc) (bispecific antibody)
chain: EVQLVESGGGLVQPGGSMRLSCVASGFPFSNYWMNWVRQAPGKGLEWVGEIRLKSNNYTTHYAESVKGRFTISRDDSKNSLYLQMNSLKTEDTAVYYCTRHYYFDYWGQGTLVTVSSGGGGSGGGGSGGGGSDIVMTQSPLSNPVTPGEPASISCRSSKSLLHSNGITYFFWYLQKPGQSPQLLIYQMSNLASGVPDRFSGSGSGTDFTLRISRVEAEDVGVYYCAQNLELPPTFGQGTKVEIKGGGGGGSGGGGSGGGGSSSSSKAPPPSEVQLLESGGGLVQPGGSLKLSCAASGFTFNTYAMNWVRQAPGKGLEWVARIRSKYNNYATYYADSVKDRFTISRDDSKNTAYLQMNNLKTEDTAVYYCVRHGNFGNSYVSWFAYWGQGTLVTVSSGGGGSGGGGSGGGGSELVVTQEPSLTVSPGGTVTLTCRSSTGAVTTSNYANWVQQKPGQAPRGLIGGTNKRAPGTPARFSGSLLGGKAALTLSGVQPEDEAEYYCALWYSNLWVFGGGTKLTVLDKTHTCPPCPAPEAAGGPSVFLFPPKPKDQLMISRTPEVTCVVVDVSHEDPEVKFNWYVDGVEVHNAKTKPREEQYASTYRVVSVLTVLHQDWLNGKEYKCKVSNKALPASIEKTISKAKGQPREPQVYTLPPSRDELTKNQVSLTCLVKGFYPSDIAVEWESNGQPENNYKTTPPVLDSDGSFFLYSKLTVDKSRWQQGNVFSCSVLHEALHNHYTQKSLSLSPG
B3 gave an EC50 [10] of 10 nM.
